Results on 18 molecules are retold here after patent US11975040B2, “Plexin binding regulator” (The University of Tokyo, priority 2016, dated 2024).

The nature of data set [1]: stability test with serum protease. The data set is classed as in vitro ADME. The settings on record: degradation by serum protease. The procedure: A stability test, with serum protease, of the cyclic peptide P6 and the cyclic peptide having an intramolecular lactam bridge structure was performed (FIG. 11c).
The target of data set [2] is T1, mouse Plexin B1 and Semaphorin 4D (Mus musculus, UniProt Q8CJH3).
T1 sequence (Q8CJH3 20-535 limits assumed): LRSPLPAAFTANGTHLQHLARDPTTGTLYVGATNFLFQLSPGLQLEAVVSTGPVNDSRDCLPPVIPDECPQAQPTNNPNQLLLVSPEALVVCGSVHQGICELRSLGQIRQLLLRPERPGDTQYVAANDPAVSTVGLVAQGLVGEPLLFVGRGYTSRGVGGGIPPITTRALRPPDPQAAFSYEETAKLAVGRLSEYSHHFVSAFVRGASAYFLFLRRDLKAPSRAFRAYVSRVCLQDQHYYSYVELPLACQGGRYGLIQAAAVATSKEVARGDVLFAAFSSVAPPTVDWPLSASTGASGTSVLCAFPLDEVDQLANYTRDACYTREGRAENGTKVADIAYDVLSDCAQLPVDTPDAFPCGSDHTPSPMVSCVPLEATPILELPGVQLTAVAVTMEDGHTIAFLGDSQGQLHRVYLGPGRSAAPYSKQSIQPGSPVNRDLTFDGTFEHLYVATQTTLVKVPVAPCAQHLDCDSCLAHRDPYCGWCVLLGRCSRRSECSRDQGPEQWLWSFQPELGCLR
Description: in vitro pulldown assay of mouse Plexin B1 / Semaphorin 4D interaction (AP activity). Type of data set: biochemical. The settings on record: compared with cyclic peptide P6. How it is done:
The effect of the cyclic peptides shown in FIG. 2c on protein-protein interaction (PPI) of Plexin B1 and Semaphorin 4D was studied by in vitro pulldown assay (FIG. 3). • 1. Plexin B1 or Plexin A2 was immobilized on Sepharose beads. • 2. A cyclic peptide that bound to Plexin B1, a negative control peptide, or dimethylsulfoxide (DMSO) was added to Plexin-B1-immobilized beads. • 3. An alkali phosphatase (AP)-fused protein of Semaphorin 4D or Semaphorin 6A was added. • 4. After washing of the resulting beads, an increase in absorbance of the sample was measured at 405 nm to determined AP activity.
High AP activity relates to high interaction (5) between Semaphorin and Plexin and low AP activity relates to […] interaction (6) between Semaphorin and Plexin.

In data set [3] the test system is Plexin B1. Briefly: Ka (µM^-1s^-1). The text has this:
(§1) Table printed on a drawing sheet, FIG. 2
Head of the field: Ka (µM^-1s^-1)
(§2) The sequences from top to bottom are SEQ ID NO: 40, SEQ ID NO: 31, SEQ ID NO: 37, SEQ ID NO: 30, SEQ ID NO: 38, and SEQ ID NO: 39.
(§3) First copying reader's note: The sequences are only the variable region of the cyclic scaffold drawn in panel b, DW(Variable region)CS-NH2 closed by a thioether bridge.
(§4) Where the first naming reader finds the target: description_of_the_figure: the respective amino acid sequence of the cyclic peptides and their binding affinity to Plexin B1

Data set [4] deals with Plexin B1. Description: KD (nM).
From the text: as §1
(§5) Head of the field: KD (nM)
as §2, §3, §4

The test system of data set [5] is Plexin B1. Briefly: Kd (s^-1).
From the text: as §1
Head of the field: Kd (s^-1)
as §2, §3, §4

In data set [6] the test system is Plexin B1. Description: ka (μM^-1s^-1). The text has this:
(§6) Table printed on a drawing sheet, FIG. 13
Head of the field: ka (μM^-1s^-1)
(§7) First copying reader's note: Panel b of FIG. 13; panel a is a bar chart and is left out.

Data set [7] relates to Plexin B1. Description: kd (ms^-1).
From the text: as §6
Head of the field: kd (ms^-1)
as §7

For data set [8], the target named is Plexin B1. Briefly: KD (nM). How it is done:
(§8) Table printed on a drawing sheet, FIG. 11
as §5
(§9) First copying reader's note: Panel a of FIG. 11; the BC8 row is highlighted with a frame on the sheet.
(§10) Where the first naming reader finds the target: passage: its binding affinity to Plexin B1 was analyzed by surface resonance plasmon (SPR) (FIG. 11a)
The source holds these as a separate data set.

In data set [9] the target is Plexin B1. Description: KD (nM).
From the text: as §6, §5, §7
The source holds these as a separate data set.

Data set [10] relates to Plexin B1. Description: kd (s^-1). How it is done:
as §8
Head of the field: kd (s^-1)
as §9, §10

The target in data set [11] is T2, human Plexin B1 (human, UniProt O43157 20-535, limits assumed).
T2 sequence (looked up): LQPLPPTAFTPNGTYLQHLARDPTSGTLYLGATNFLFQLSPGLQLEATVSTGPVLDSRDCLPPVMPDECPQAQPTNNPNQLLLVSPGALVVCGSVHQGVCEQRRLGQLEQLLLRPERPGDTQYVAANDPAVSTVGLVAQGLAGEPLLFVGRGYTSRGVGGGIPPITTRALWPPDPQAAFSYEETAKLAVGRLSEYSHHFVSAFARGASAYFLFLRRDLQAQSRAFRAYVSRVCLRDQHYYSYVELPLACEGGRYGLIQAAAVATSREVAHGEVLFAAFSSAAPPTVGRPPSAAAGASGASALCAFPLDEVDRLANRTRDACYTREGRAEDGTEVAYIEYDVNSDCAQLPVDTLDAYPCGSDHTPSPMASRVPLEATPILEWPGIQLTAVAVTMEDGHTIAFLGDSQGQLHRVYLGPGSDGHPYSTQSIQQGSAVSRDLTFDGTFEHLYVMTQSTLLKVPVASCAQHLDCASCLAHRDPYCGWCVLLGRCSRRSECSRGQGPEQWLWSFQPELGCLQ
Briefly: SPR.

A further data set addresses T3, mouse Plexin B1 (mouse, UniProt Q8CJH3 20-535, limits assumed).
T3 sequence (looked up): T1 sequence (Q8CJH3 20-535 limits assumed)
Briefly: SPR. (In general: SPR reads the build-up and loss of mass on a sensor chip optically.)

Data set [12] has as its target T2, human Plexin B1. Description: SPR. The source holds these as a separate data set.
In data set [13] the target is T2, human Plexin B1. Briefly: SPR. This is another data set of the same source.

Read-outs that look alike come from different tables or passages of the source. Positions of bridges follow the written chain, without caps; N, C: chain ends. Non-standard residues stand in square brackets, D forms with d. Residues, ends and D or L forms follow the SMILES beside them. No end group written: not given here.

Turning to `CC[C@H](C)[C@@H]1NC(=O)[C@H](CCC(N)=O)NC(=O)CNC(=O)[C@H]([C@@H](C)O)NC(=O)[C@H](Cc2c[nH]c3ccccc23)NC(=O)[C@H](CCCNC(=N)N)NC(=O)[C@H](C)NC(=O)[C@H](C(C)C)NC(=O)[C@H](CCCNC(=N)N)NC(=O)[C@@H]2CCCN2C(=O)[C@H](CCCNC(=N)N)NC(=O)[C@@H](Cc2c[nH]c3ccccc23)NC(=O)CSC[C@@H](C(=O)N[C@@H](CO)C(N)=O)NC(=O)[C@H](Cc2ccc(O)cc2)NC(=O)[C@H]([C@@H](C)CC)NC1=O` [P6, wRPRVARWTGQITYC] ({CH2CO}-[dW]RPRVARWTGQIIYCS-NH2; thioether N-15 (inferred); N-terminus and C-terminus assumed), in data set [1], the half-life lay in the range of 3 to 6 h.
As for `CC(C)[C@@H]1NC(=O)[C@H](Cc2ccc(O)cc2)NC(=O)[C@H](Cc2ccccc2)NC(=O)[C@H]([C@@H](C)O)NC(=O)CNC(=O)[C@H]([C@@H](C)O)NC(=O)[C@H](Cc2c[nH]c3ccccc23)NC(=O)[C@H](CCCNC(=N)N)NC(=O)[C@H](CC(=O)O)NC(=O)[C@H](Cc2ccc(O)cc2)NC(=O)[C@H](Cc2ccccc2)NC(=O)[C@H](Cc2c[nH]c3ccccc23)NC(=O)[C@H](CCCNC(=N)N)NC(=O)[C@@H](Cc2c[nH]c3ccccc23)NC(=O)CSC[C@@H](C(=O)NCC(N)=O)NC1=O` [mp6-2, wRWFYDRWTGTFYVC] ({CH2CO}-[dW]RWFYDRWTGTFYVCG-NH2; thioether N-15), in [2], the “interaction inhibiting activity between mouse Plexin B1 and Semaphorin 4D” value is recorded as “equivalent to that of the cyclic peptide P6”.
On to AVSNLPPRPHITYIE [P1], for which the “Ka” value in the data set with Plexin B1 [3] amounted to 20000 M⁻¹ s⁻¹. For the same molecule, the Kd was determined as 700 nM on Plexin B1 [4] and 0.014 s⁻¹ in the data set on Plexin B1 [5].
In the same order, the values of NGTLSWQTYSHL [P8] are 53000 M⁻¹ s⁻¹, 689 nM and 0.037 s⁻¹.
For “P6dPEG5: dimerized cyclic peptide P6 (FIG. 12b) ({CH2CO}-[dW]RPRVARWTGQIIYCS; thioether N-15; also: dimer: two units joined after S16 by PEG linkers)”, the “ka” value in the data set with Plexin B1 [6] turned out to be 1.18e+06 M⁻¹ s⁻¹. Moreover, in the data set with Plexin B1 [7], the “kd (ms^-1)” value is on record as 0.447 ms^-1.
Consider “RPRAARWTGQIIY (not fully specified) [P5]”, for which, in the data set on Plexin B1 [3], the “Ka” value is 21000 M⁻¹ s⁻¹. The Kd at Plexin B1 [4] is 77.1 nM; in the data set on Plexin B1 [5], 0.002 s⁻¹.
RVRVERWTGKLI (not fully specified) [P3]: the “Ka” value with Plexin B1 [3] turned out to be 4.27e+06 M⁻¹ s⁻¹. In addition, the Kd at Plexin B1 [4] came out at 33.7 nM; in the data set with Plexin B1 [5], 0.144 s⁻¹.
wRPRVARWTGQITYC [P6]: the Kd amounted to 3.81 nM at Plexin B1 [8], 3.34 nM at Plexin B1 [9], 3.5 nM at Plexin B1 [4] and 0.012 s⁻¹ in the data set with Plexin B1 [5]. The “kd” value in the data set on Plexin B1 [10] came out at 0.0151 s⁻¹. For the same molecule, in the data set with Plexin B1 [3], the “Ka” value is 3.46e+06 M⁻¹ s⁻¹.
On to {CH2CO}-[dW]NSNVLSWQTYSWYCS (thioether N-15) [SEQ ID NO 38], for which, in the data set with human Plexin B1 [11], the Kd amounted to 275 nM, the koff was found to be 0.01 s⁻¹ and the kon amounted to 38000 M⁻¹ s⁻¹.
On to {CH2CO}-[dW]LGYIARWTGTVVKCG (thioether N-15) [cyclic peptide mp6-3], for which the Kd in the data set with mouse Plexin B1 stood at 227 nM; with human Plexin B1 [12], 241 nM.
Take {CH2CO}-[dW]LAYIERWTGQIVRCG (thioether N-15) [cyclic peptide mp6-5]: the Kd in the data set with mouse Plexin B1 stood at 507 nM; with human Plexin B1 [12], 174 nM.
As to {CH2CO}-[dW]RPRAARWTGQIIYCS (thioether N-15) [SEQ ID NO 37], in the data set with human Plexin B1 [11], the Kd is 77.1 nM, the koff was found to be 0.002 s⁻¹ and the kon amounted to 21000 M⁻¹ s⁻¹.
Regarding {CH2CO}-[dW]RPRVARWTGQIIYCS (thioether N-15) [SEQ ID NO 30], in the data set with human Plexin B1 [11], the Kd was 3.5 nM, the koff is 0.012 s⁻¹ and the kon came to 3.46e+06 M⁻¹ s⁻¹.
For {CH2CO}-[dW]RAFIERWTGRLVVCG (thioether N-15) [cyclic peptide mp6-7], the Kd was 126 nM in the data set with mouse Plexin B1 and 4.58 nM with human Plexin B1 [12].
{CH2CO}-[dW]RVRVERWTGKLICS (thioether N-14) [SEQ ID NO 31]: in the data set with human Plexin B1 [11], the Kd turned out to be 33.7 nM, the off-rate (koff) came out at 0.144 s⁻¹ and the kon is 4.27e+06 M⁻¹ s⁻¹.
Consider {CH2CO}-[dW]RPRVARWTGQIIYCS (thioether N-15; also: dimer, two units joined after S16 by PEG linkers, also called dimerized cyclic peptide P6) [P6dPEG5], for which, in the data set with human Plexin B1 [13], the Kd is 0.38 nM and the kon amounted to 1.18e+06 M⁻¹ s⁻¹.
In the data set with human Plexin B1 [11], {CH2CO}-[dW]NGTLSWQTYSHLCS (thioether N-14) [SEQ ID NO 39] displayed a Kd of 689 nM, a koff of 0.037 s⁻¹ and a kon of 53000 M⁻¹ s⁻¹.
The corresponding values for {CH2CO}-[dW]AVSNLPPRPHITYIECS (thioether N-17) [SEQ ID NO 40] are 700 nM, 0.014 s⁻¹ and 20000 M⁻¹ s⁻¹.

For orientation: half-life means the time in which the quantity being followed falls by half. A higher half-life goes with slow loss. In general, koff refers to a measure of how fast the partners let go of each other. As usually defined, the kon is the second-order rate constant of association. A high value points to fast association.
